Where a chain is given by its changes, count along the chain named. Names may count otherwise. “Also recorded” adds a separate entry of the source.
B1: Tat-PSD-95 PDZ2: His-tagged fusion peptide: HIV Tat minimal transduction domain (residues 47-57) fused to the second PDZ domain of PSD-95 (protein)
chain: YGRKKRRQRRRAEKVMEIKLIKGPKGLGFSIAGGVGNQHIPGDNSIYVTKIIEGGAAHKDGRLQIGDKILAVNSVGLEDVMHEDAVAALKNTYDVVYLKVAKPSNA
B2: mutated Tat-PSD-95 PDZ2: Control fusion peptide: Tat-PSD-95 PDZ2 with three sites critical for NMDAR/PSD-95 interaction mutated (K165T, L170R and H182L) (protein)
chain: B1 chain with K22T, L27R, H39L
B3: PSD-95 PDZ2: Control peptide containing the same sequences as Tat-PSD-95 PDZ2 but without Tat PTD (protein)
chain: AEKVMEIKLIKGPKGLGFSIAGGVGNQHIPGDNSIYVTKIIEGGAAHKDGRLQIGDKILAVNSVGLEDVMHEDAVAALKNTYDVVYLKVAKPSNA

Assays:
Format in all cases: in vivo, mouse
[1] = test system: CFA-induced inflammatory pain behaviors; assay: CFA-induced inflammatory pain behaviors, paw withdrawal threshold (von Frey filaments); details: vs vehicle
Experimental: Intrathecal Injection of Tat Fusion Peptides. Intrathecal injection was performed in unanesthetized mice as previously described (Hylden and Wilcox, 1980; Tao, et al., 2003b; Tao, et al., 2004). In brief, the mouse was held firmly by the pelvic girdle in one hand, while a 10-μl Luer tip syringe with a 30 gauge 0.5-inch needle was held in the other hand at an angle of about 20° above the vertebral column. The needle was inserted into the tissue to one side of the L5 or L6 spinous process so that it slipped into the groove between the spinous and transverse processes. The needle was then moved carefully forward to the intervertebral space as the angle of the syringe was decreased to about 10°. […] The injection volume was 5 μl. The mice, assigned randomly to the experimental groups of 6-8, were given intrathecally Tat-PSD-95 PDZ2 or control peptide (mutated Tat-PSD-95 PDZ2 or PSD-95 PDZ2 without Tat PTD) 30 min before behavioral testing. Behavioral Analysis. Mechanical sensitivity of the mice was measured with von Frey filaments (Stoelting, Wood Dale, Ill.) as described previously (Yang and Gereau, 2003). Mice were placed in Plexiglas testing boxes with a 1×1 cm^2 wire-mesh grid floor and habituated for 3 h before experiments. Each von Frey filament was applied to the mouse hind paw in ascending order until it bent at approximately 30° for about 3 s. The smallest filament that evoked a paw withdrawal response was taken as the mechanical threshold (paw withdrawal threshold). Similar sites were selected for measuring mechanical thresholds in all tested animals, and the thresholds were measured at approximately the same site throughout the experiment for each individual animal. Two to three measurements were made before CFA or fusion peptides injection, and the average was calculated as the baseline. Established inflammatory pain behaviors were induced by intraplantar injection of CFA solution (20 μl, 1 mg/ml). To observe the effect of Tat-PSD-95 PDZ2 on the development of CFA-induced established inflammatory pain, the mice were given intraperitoneally Tat-PSD-95 PDZ2 or control peptide (mutated Tat-PSD-95 PDZ2 or PSD-95 PDZ2 without Tat) 2 h before CFA injection or intrathecally these peptides 1.5 h after CFA injection (development protocol); on the other hand, to observe the effect of Tat-PSD-95 PDZ2 on the maintenance of CFA-induced established inflammatory pain, the mice were given intraperitoneally these peptides 20 h after CFA injection or intrathecally these peptides 23.5 h after CFA injection (maintenance protocol). Behavioral measurements were conducted 2 h after CFA injection for the “development protocol” and 24 h after CFA injection for the “maintenance protocol”. The effect of Tat fusion peptide on CFA-induced established inflammatory pain behaviors was expressed as % of baseline.

[2] = test system: threshold for halothane anesthesia; assay: Measurement of halothane MAC (tail clamp); details: mice; for halothane MAC: mean±S.E.M., vehicle 1.12±0.05; for effect on halothane MAC: intraperitoneal injection, dose series
Experimental: The purified fusion peptides at the indicated amounts were injected intraperitoneally into mice in 300 μl of phosphate-buffered saline and 10% glycerol. The mice were given Tat-PSD-95 PDZ2 or control peptide (mutated Tat-PSD-95 PDZ2 or PSD-95 PDZ2 without Tat) 4 h before MAC measurement and righting reflex testing. All the animals were assigned randomly to experimental groups consisting of 6-8 animals each. Western blot analysis was then used to verify the CNS delivery of these fusion peptides after intraperitoneal injection. Measurement of halothane MAC value was carried out as previously described with minor modification^20-22. Mice were placed in individual Plexiglas chambers 3 h after the injection of the fusion peptides. Each chamber was fitted with a rubber stopper at one end through which the mouse's tail and a rectal temperature probe protruded. Groups of four mice were given halothane in oxygen (4 l/min total gas flow). A gas sample was continuously drawn, and the anesthetic concentration was measured with an agent analyzer (Ohmeda 5250 RGM, Louisville, Colo.). A rectal temperature probe was inserted under light general anesthesia, and temperature was kept at 36˜38° C. with heat lamps throughout the experiment. Mice initially breathed approximately 1.5% halothane for 60 min. […] In each case, the tail was stimulated proximal to the previous test site. Only the middle third of the tail was used for tail-clamping. […] The anesthetic concentration was increased (or decreased) in steps of 0.1% until the positive response disappeared (or vice versa), with 10 min for equilibration allowed after each change of anesthetic concentration. MAC is defined as the concentration midway between the highest concentration that permitted movement in response to the stimulus and the lowest concentration that prevented movement.

[3] = test system: threshold for halothane anesthesia; assay: Determination of halothane RREC50 (righting reflex); details: mice; for halothane RREC50: mean±S.E.M., vehicle 0.48±0.02; for effect on halothane RREC50: intraperitoneal injection, dose series
Experimental: The purified fusion peptides at the indicated amounts were injected intraperitoneally into mice in 300 μl of phosphate-buffered saline and 10% glycerol. The mice were given Tat-PSD-95 PDZ2 or control peptide (mutated Tat-PSD-95 PDZ2 or PSD-95 PDZ2 without Tat) 4 h before MAC measurement and righting reflex testing. All the animals were assigned randomly to experimental groups consisting of 6-8 animals each. Western blot analysis was then used to verify the CNS delivery of these fusion peptides after intraperitoneal injection. Following the measurement of MAC, the halothane concentration was halved for 10 min and the animal turned on its back to test the righting reflex defined as a return onto all four paws within 1 min^20-22. […] RREC50 was calculated for each mouse as the mean value of the anesthetic concentrations that just permitted and just prevented the righting reflex.

[4] = intraperitoneal, Tat-PSD-95 PDZ2 2, 4, 8 mg/kg, control peptides 8 mg/kg, development and maintenance phases
[5] = intrathecal, Tat-PSD-95 PDZ2 2.5, 5, 10 μg/5 μl, control peptides 10 μg/5 μl

Molecule	effect on CFA-induced decrease of paw withdrawal threshold, ipsilateral side [1, 4]	effect on CFA-induced decrease of paw withdrawal threshold, ipsilateral side [1, 5]	halothane MAC ([2]; 2 mg/kg intraperitoneal)	halothane MAC ([2]; 4 mg/kg intraperitoneal)	effect on halothane MAC compared to the vehicle-treated group ([2]; 8 mg/kg intraperitoneal)	halothane MAC ([2]; 8 mg/kg intraperitoneal)	effect on halothane MAC [2]	halothane RREC50 ([3]; 2 mg/kg intraperitoneal)	halothane RREC50 ([3]; 4 mg/kg intraperitoneal)	halothane RREC50 ([3]; 8 mg/kg intraperitoneal)	effect on halothane RREC50 [3]	effect on halothane RREC50 compared to vehicle-treated group ([3]; two higher doses (4 and 8 mg/kg) intraperitoneal)	effect on halothane RREC50 compared to vehicle-treated group ([3]; 8 mg/kg intraperitoneal)
B1	significantly inhibited; also recorded: dose-dependently inhibited	significantly inhibited; also recorded: dose-dependently inhibited	1.11±0.05	0.99±0.05	significantly reduced	0.77±0.05	dose-dependently reduced	0.45±0.03	0.37±0.03	0.18±0.02	dose-dependently reduced	significantly reduced	–
B2	no effect	no effect	–	–	no effect	–	no effect	–	–	–	no effect	–	no effect
B3	no effect	no effect	–	–	no effect	–	no effect	–	–	–	no effect	–	no effect
